Paper PMC5117854, “Functional asymmetry and electron flow in the bovine respirasome” (eLife, 2016)

How the values were obtained:
subunit 1 of complex III = target: T1, subunit 1 of complex III (bovine (endogenous in heart …, UniProt P31800 35-480)); assay: cryo-EM structure; class 1 map of supercomplex I1III2IV1 (17,094 particles, 9.1 Å; transmembrane region 8.6 Å); native supercomplex co-purified from bovine heart mitochondria (PCC-a-M, then amphipol A8-35, density gradient); atomic models of complexes I, III and IV docked; settings: both partners purified
T1 construct: complex III subunit 1, bovine heart; stood in the assay as a subunit of the complex III dimer within the respirasome; also called subunit 1 of the bc1 complex; source: endogenous, bovine heart mitochondria; part of the supercomplex I1III2IV1 purified in amphipol A8-35
T1 sequence (looked up): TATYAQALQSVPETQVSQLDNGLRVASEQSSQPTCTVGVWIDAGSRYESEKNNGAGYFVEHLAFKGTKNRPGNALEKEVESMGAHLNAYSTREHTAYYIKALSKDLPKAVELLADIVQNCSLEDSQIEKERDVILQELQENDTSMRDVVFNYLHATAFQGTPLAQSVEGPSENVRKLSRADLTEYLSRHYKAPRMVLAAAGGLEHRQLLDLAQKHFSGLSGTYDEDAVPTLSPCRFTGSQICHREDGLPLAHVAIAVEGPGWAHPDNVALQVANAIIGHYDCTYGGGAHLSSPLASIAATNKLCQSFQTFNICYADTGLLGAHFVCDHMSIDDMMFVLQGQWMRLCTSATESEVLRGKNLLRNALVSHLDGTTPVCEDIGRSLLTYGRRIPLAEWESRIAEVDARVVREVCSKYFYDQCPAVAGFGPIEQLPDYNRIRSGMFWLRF

subunit ND5 of complex I = target: T2, subunit ND5 of complex I (bovine (endogenous in heart …, UniProt P03920 1-606)); assay: as above; settings: both partners purified
T2 construct: complex I core subunit ND5, bovine heart; stood in the assay as a subunit of complex I within the respirasome; source: endogenous, bovine heart mitochondria; part of the supercomplex I1III2IV1 purified in amphipol A8-35
T2 sequence (P03920 whole entry, one chain of several): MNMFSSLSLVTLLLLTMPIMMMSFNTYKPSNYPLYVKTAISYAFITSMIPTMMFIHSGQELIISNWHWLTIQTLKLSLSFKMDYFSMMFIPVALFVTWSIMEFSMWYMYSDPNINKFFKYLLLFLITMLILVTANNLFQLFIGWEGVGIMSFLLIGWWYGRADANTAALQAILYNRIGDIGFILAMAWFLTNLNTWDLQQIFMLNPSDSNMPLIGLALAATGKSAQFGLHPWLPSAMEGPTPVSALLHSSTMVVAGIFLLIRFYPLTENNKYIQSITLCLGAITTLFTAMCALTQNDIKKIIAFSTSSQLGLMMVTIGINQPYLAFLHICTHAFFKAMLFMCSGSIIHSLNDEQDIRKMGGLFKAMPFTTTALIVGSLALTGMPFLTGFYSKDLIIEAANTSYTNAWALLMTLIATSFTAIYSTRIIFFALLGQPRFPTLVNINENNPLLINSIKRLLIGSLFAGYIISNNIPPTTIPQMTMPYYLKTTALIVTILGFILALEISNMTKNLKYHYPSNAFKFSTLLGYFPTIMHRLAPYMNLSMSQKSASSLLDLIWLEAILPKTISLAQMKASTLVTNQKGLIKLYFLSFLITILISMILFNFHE

Row | Binder | binding result (subunit 1 of complex III) | binding result (subunit ND5 of complex I)
1 | COX7A1 of cytochrome c oxidase (complex IV) (natural protein, UniProt P07470 22-80, looked up, complex IV subunit COX7A1, bovine heart; stood in the assay as a subunit of complex IV within the respirasome; source: endogenous, bovine heart mitochondria; part of the supercomplex I1III2IV1 purified in amphipol A8-35) FENRVAEKQKLFQEDNGLPVHLKGGATDNILYRVTMTLCLGGTLYSLYCLGWASFPHKK | binds | 
2 | SHYEEGPGKNIPFSVENKWRLLAMMTLFFGSGFAAPFFIVRHQLLKK (natural protein, UniProt P00430 17-63, looked up, complex IV subunit COX7C, bovine heart; stood in the assay as a subunit of complex IV within the respirasome; source: endogenous, bovine heart mitochondria; part of the supercomplex I1III2IV1 purified in amphipol A8-35) [complex IV subunit COX7C] |  | binds
